The text below walks through data of publication PMC12630360.

Test [1] concerns the target H-2L^d heavy chain (free heavy chain, L^d-fH, when without β2m and peptide) (mouse). As to the kind of experiment: flow cytometry on cells; BFA/temperature upshift decays: cells overnight at 25 °C, 10 μg/ml brefeldin A, then 37 °C for the indicated times; surface Hβ and fH followed with conformation-specific mAbs; half-times fitted (by hand or Solver) with a first-order in silico model.

For test [2], the target named is HLA class I heavy chains of HeLa/US6 cells (the H of HLA-Hβ in the BFA/temperature upshift decays) (human (endogenous in HeLa)). The test is described as above.

Chain of H-2L^d heavy chain (free heavy chain, L^d-fH, when without β2m and peptide) (mouse) (P01897 25-362): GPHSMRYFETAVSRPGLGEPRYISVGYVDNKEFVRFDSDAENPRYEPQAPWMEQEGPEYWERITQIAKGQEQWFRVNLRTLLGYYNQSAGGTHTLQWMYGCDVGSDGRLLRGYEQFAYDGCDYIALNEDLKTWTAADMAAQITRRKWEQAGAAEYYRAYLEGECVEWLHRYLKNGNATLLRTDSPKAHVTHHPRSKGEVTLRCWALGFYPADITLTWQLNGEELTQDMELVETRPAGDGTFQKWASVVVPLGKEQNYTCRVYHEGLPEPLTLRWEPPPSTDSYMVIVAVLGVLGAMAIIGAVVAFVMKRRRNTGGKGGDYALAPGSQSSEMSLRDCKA

For “beta-2 microglobulin of STF1 cells (from UniProt P61769 21-119) (natural protein)”, the half-time of β2m dissociation (r1) at 37 °C in test [1] was 3 min.
On to “beta-2 microglobulin of HeLa/US6 cells (from UniProt P61769 21-119) (natural protein)”, for which the half-time of β2m dissociation (r1) at 37 °C in test [2] was 10 min.
